Measurements taken from patent US7063946B2, “Methods, reagents, kits and apparatus for protein function analysis” (Meso Scale Technologies, LLC., priority 2001, dated 2006).

B1: 4537393: IMAGE clone protein: TTK protein kinase (protein, UniProt P33981 1-857, looked up)
Dual specificity protein …: MESEDLSGRELTIDSIMNKVRDIKNKFKNEDLTDELSLNKISADTTDNSGTVNQIMMMANNPEDWLSLLLKLEKNSVPLSDALLNKLIGRYSQAIEALPPDKYGQNESFARIQVRFAELKAIQEPDDARDYFQMARANCKKFAFVHISFAQFELSQGNVKKSKQLLQKAVERGAVPLEMLEIALRNLNLQKKQLLSEEEKKNLSASTVLTAQESFSGSLGHLQNRNNSCDSRGQTTKARFLYGENMPPQDAEIGYRNSLRQTNKTKQSCPFGRVPVNLLNSPDCDVKTDDSVVPCFMKRQTSRSECRDLVVPGSKPSGNDSCELRNLKSVQNSHFKEPLVSDEKSSELIITDSITLKNKTESSLLAKLEETKEYQEPEVPESNQKQWQSKRKSECINQNPAASSNHWQIPELARKVNTEQKHTTFEQPVFSVSKQSPPISTSKWFDPKSICKTPSSNTLDDYMSCFRTPVVKNDFPPACQLSTPYGQPACFQQQQHQILATPLQNLQVLASSSANECISVKGRIYSILKQIGSGGSSKVFQVLNEKKQIYAIKYVNLEEADNQTLDSYRNEIAYLNKLQQHSDKIIRLYDYEITDQYIYMVMECGNIDLNSWLKKKKSIDPWERKSYWKNMLEAVHTIHQHGIVHSDLKPANFLIVDGMLKLIDFGIANQMQPDTTSVVKDSQVGTVNYMPPEAIKDMSSSRENGKSKSKISPKSDVWSLGCILYYMTYGKTPFQQIINQISKLHAIIDPNHEIEFPDIPEKDLQDVLKCCLKRDPKQRISIPELLAHPYVQIQTHPVNQMAKGTTEEMKYVLGQLVGLNSPNSILKAAKTLYEHYSGGESHNSSSSKTFEKKRGKK
B2: 4498209: IMAGE clone protein: EPHB1, EphB1 (protein, UniProt P54762 18-984, looked up)
Ephrin type-B receptor 1: MEETLMDTRTATAELGWTANPASGWEEVSGYDENLNTIRTYQVCNVFEPNQNNWLLTTFINRRGAHRIYTEMRFTVRDCSSLPNVPGSCKETFNLYYYETDSVIATKKSAFWSEAPYLKVDTIAADESFSQVDFGGRLMKVNTEVRSFGPLTRNGFYLAFQDYGACMSLLSVRVFFKKCPSIVQNFAVFPETMTGAESTSLVIARGTCIPNAEEVDVPIKLYCNGDGEWMVPIGRCTCKPGYEPENSVACKACPAGTFKASQEAEGCSHCPSNSRSPAEASPICTCRTGYYRADFDPPEVACTSVPSGPRNVISIVNETSIILEWHPPRETGGRDDVTYNIICKKCRADRRSCSRCDDNVEFVPRQLGLTECRVSISSLWAHTPYTFDIQAINGVSSKSPFPPQHVSVNITTNQAAPSTVPIMHQVSATMRSITLSWPQPEQPNGIILDYEIRYYEKEHNEFNSSMARSQTNTARIDGLRPGMVYVVQVRARTVAGYGKFSGKMCFQTLTDDDYKSELREQLPLIAGSAAAGVVFVVSLVAISIVCSRKRAYSKEAVYSDKLQHYSTGRGSPGMKIYIDPFTYEDPNEAVREFAKEIDVSFVKIEEVIGAGEFGEVYKGRLKLPGKREIYVAIKTLKAGYSEKQRRDFLSEASIMGQFDHPNIIRLEGVVTKSRPVMIITEFMENGALDSFLRQNDGQFTVIQLVGMLRGIAAGMKYLAEMNYVHRDLAARNILVNSNLVCKVSDFGLSRYLQDDTSDPTYTSSLGGKIPVRWTAPEAIAYRKFTSASDVWSYGIVMWEVMSFGERPYWDMSNQDVINAIEQDYRLPPPMDCPAALHQLMLDCWQKDRNSRPRFAEIVNTLDKMIRNPASLKTVATITAVPSQPLLDRSIPDFTAFTTVDDWLSAIKMVQYRDSFLTAGFTSLQLVTQMTSEDLLRIGITLAGHQKKILNSIHSMRVQISQSPTAMA
B3: 4398416: IMAGE clone protein: Csk, c-src tyrosine kinase (protein, UniProt P41241 2-450, looked up)
Tyrosine-protein kinase CSK: SAIQAAWPSGTECIAKYNFHGTAEQDLPFCKGDVLTIVAVTKDPNWYKAKNKVGREGIIPANYVQKREGVKAGTKLSLMPWFHGKITREQAERLLYPPETGLFLVRESTNYPGDYTLCVSCEGKVEHYRIMYHASKLSIDEEVYFENLMQLVEHYTTDADGLCTRLIKPKVMEGTVAAQDEFYRSGWALNMKELKLLQTIGKGEFGDVMLGDYRGNKVAVKCIKNDATAQAFLAEASVMTQLRHSNLVQLLGVIVEEKGGLYIVTEYMAKGSLVDYLRSRGRSVLGGDCLLKFSLDVCEAMEYLEGNNFVHRDLAARNVLVSEDNVAKVSDFGLTKEASSTQDTGKLPVKWTAPEALREKKFSTKSDVWSFGILLWEIYSFGRVPYPRIPLKDVVPRVEKGYKMDAPDGCPPAVYEVMKNCWHLDAATRPTFLQLREQLEHIKTHELHL
B4: 4384416: IMAGE clone protein: BTK, Bruton agammaglobulinemia tyrosine kinase (protein, UniProt Q06187 2-659, looked up)
Tyrosine-protein kinase BTK: AAVILESIFLKRSQQKKKTSPLNFKKRLFLLTVHKLSYYEYDFERGRRGSKKGSIDVEKITCVETVVPEKNPPPERQIPRRGEESSEMEQISIIERFPYPFQVVYDEGPLYVFSPTEELRKRWIHQLKNVIRYNSDLVQKYHPCFWIDGQYLCCSQTAKNAMGCQILENRNGSLKPGSSHRKTKKPLPPTPEEDQILKKPLPPEPAAAPVSTSELKKVVALYDYMPMNANDLQLRKGDEYFILEESNLPWWRARDKNGQEGYIPSNYVTEAEDSIEMYEWYSKHMTRSQAEQLLKQEGKEGGFIVRDSSKAGKYTVSVFAKSTGDPQGVIRHYVVCSTPQSQYYLAEKHLFSTIPELINYHQHNSAGLISRLKYPVSQQNKNAPSTAGLGYGSWEIDPKDLTFLKELGTGQFGVVKYGKWRGQYDVAIKMIKEGSMSEDEFIEEAKVMMNLSHEKLVQLYGVCTKQRPIFIITEYMANGCLLNYLREMRHRFQTQQLLEMCKDVCEAMEYLESKQFLHRDLAARNCLVNDQGVVKVSDFGLSRYVLDDEYTSSVGSKFPVRWSPPEVLMYSKFSSKSDIWAFGVLMWEIYSLGKMPYERFTNSETAEHIAQGLRLYRPHLASEKVYTIMYSCWHEKADERPTFKILLSNILDVMDEES
B5: 4778819: IMAGE clone protein: Hck, hemopoietic cell kinase (protein, UniProt P08103 2-524, looked up)
Tyrosine-protein kinase HCK: GGRSSCEDPGCPRSEGRAPRMGCVKSRFLRDGSKASKTEPSANQKGPVYVPDPTSSSKLGPNNSNSMPPGFVEGSEDTIVVALYDYEAIHREDLSFQKGDQMVVLEEAGEWWKARSLATKKEGYIPSNYVARVNSLETEEWFFKGISRKDAERHLLAPGNMLGSFMIRDSETTKGSYSLSVRDFDPQHGDTVKHYKIRTLDSGGFYISPRSTFSSLQELVLHYKKGKDGLCQKLSVPCVSPKPQKPWEKDAWEIPRESLQMEKKLGAGQFGEVWMATYNKHTKVAVKTMKPGSMSVEAFLAEANLMKSLQHDKLVKLHAVVSQEPIFIVTEFMAKGSLLDFLKSEEGSKQPLPKLIDFSAQISEGMAFIEQRNYIHRDLRAANILVSASLVCKIADFGLARIIEDNEYTAREGAKFPIKWTAPEAINFGSFTIKSDVWSFGILLMEIVTYGRIPYPGMSNPEVIRALEHGYRMPRPDNCPEELYNIMIRCWKNRPEERPTFEYIQSVLDDFYTATESQYQQQP

Test system: autophosphorylation (phosphotyrosine)
Assay: In vitro kinase library screen: autophosphorylation
Format: biochemical
Settings: not given
Procedure: Proteins were produced from DNA plasmids of Mock Luciferase, Promega, tyrosine kinase clone Spleen Tyrosine kinase (SYK, IMAGE ID# 3870426) and Eph receptor-A7 (EphA7, IMAGE ID# 3991628) (Incyte Genomics, CA) and immobilized on streptavidin or avidin coated NPT-IPR plates as described in the Example 7. To promote autophosphorylation in these immobilized and purified proteins, Mn++ ions were added in a 50 μl reaction containing 5 mM MgCl2, 5 mM MnCl2, 100 μM ATP, 25 mM Tris-HCl buffer pH 7.4, 0.05 mM Na3VO4, 0.004% TritonX-100, 2 mM DTT and EDTA-free protease inhibitor (Roche Molecular Biochemicals). This mixture was incubated with shaking at room temperature overnight to allow autophosphorylation. Following this incubation, wells were washed 2 times with TT-buffer and 2 times with water. Following this step, 50 ng Sulfo-TAG labeled anti-phosphotyrosine in buffer containing 25 mM Tris-HCl buffer pH 7.4, 5 mM MgCl2, 0.05 mM Na3VO4, 0.004% TritonX-100, 2 mM DTT and 0.05% IgG in a final volume of 50 μl was added followed by incubation at room temperature for 45 min. The unbound reagents were removed by one time washing with water, and the TAG label was detected in presence of 150 μl IPR assay buffer (0.4 mM Gly—Gly buffer, pH 7.8, 1 mM EDTA, 0.1 M TPA). The ECL signals were measured using an imaging plate reader.
(§1) Proteins were produced in an in vitro transcription and translation reaction as described in the Materials and Methods. […] The reaction was stopped by mixing with BB2 buffer. Biotinylated proteins from 50 μl of the mixture (representing 0.5 μl to 5 μl of TnT reaction) were immobilized onto streptavidin or avidin coated NPT-IPR plates by shaking at room temperature for 45 min. The activity of the immobilized protein towards pEY or autophosphorylation was further assayed by the methods described in examples 7 and 8.

| Molecule | ECL signal |
| --- | --- |
| B1 | 50,479 |
| B2 | 3,138 |
| B3 | 349,847 |
| B4 | 1,503,772 |
| B5 | 1,198,625 |

Test system: pEY
Assay: In vitro kinase library screen: activity towards pEY
Format: biochemical
Settings: 5 ul of expressed protein
Procedure: Proteins were produced in an in vitro transcription and translation reaction. […] The unbound components of the reaction containing endogenous kinases were removed by three washes with TT-buffer (25 mM Tris-HCl buffer pH 7.4 and 0.004% Triton), two five minutes washings with high-salt wash buffer (25 mM Tris-HCl buffer pH 7.4, 0.004% Triton, 1M NaCl and 5 mM DTT) and 3 more washes with TT-buffer. To these immobilized and purified proteins a tyrosine kinase substrate, 5 nM pEY (poly Glu-Tyr, Sigma, MO), was added in a 50 μl reaction solution containing 5 mM MgCl2, 5 mM MnCl2, 100 μM ATP, 25 mM Tris-HCl buffer pH 7.4, 0.05 mM Na3VO4, 0.004% TritonX-100, 2 mM DTT and EDTA-free protease inhibitor (Roche Molecular Biochemicals). This mixture was incubated with shaking at room temperature overnight to allow phosphorylation of the pEY substrate by the immobilized kinases. Following this incubation, 45 μl of this mixture was transferred to a streptavidin or avidin-coated NPT IPR plate coated with biotinylated anti-phosphotyrosine antibody (PY20, Zymed labs, CA) followed by incubation for 30 minutes at room temperature to allow the binding of the phosphorylated pEY substrate to the PY20 coated NPT plate. Following this binding step, 50 ng Sulfo-TAG labeled anti-phosphotyrosine in buffer containing 25 mM Tris-HCl buffer pH 7.4, 5 mM MgCl2, 0.05 mM Na3VO4, 0.004% TritonX-100, 2 mM DTT and 0.05% IgG was added followed by incubation at room temperature for 30 mm. The unbound reagents were removed by one time washing with water, and the TAG label was detected in presence of 150 μl IPR assay buffer (0.4 mM Gly-Gly buffer, pH 7.8, 1 mM EDTA, 0.1 M TPA). The ECL signals were measured using an imaging plate reader.
as §1

| Molecule | HTS signal |
| --- | --- |
| B1 | 1,711 |
| B2 | 853 |
| B3 | 683,039 |
| B4 | 793,874 |
| B5 | 958,415 |
